The results in this text go back to IntAct's records for PubMed 31515488.

Some targets named below: rgs3_human RGS3 (UniProt P49796); stox1_human STOX1 (UniProt Q6ZVD7); gt253_human CERCAM (UniProt Q5T4B2); vtnc_human VTN (UniProt P04004); nup50_human NUP50 (UniProt Q9UKX7); spopl_human SPOPL (UniProt Q6IQ16); an32b_human ANP32B (UniProt Q92688); leg9b_human LGALS9B (UniProt Q3B8N2); pdli7_human PDLIM7 (UniProt Q9NR12); anr44_human ANKRD44 (UniProt Q8N8A2); snrpa_human SNRPA (UniProt P09012); ptbp2_human PTBP2 (UniProt Q9UKA9); S100A1 (UniProt P23297); tb22b_human TBC1D22B (UniProt Q9NU19); ap2m1_human AP2M1 (UniProt Q96CW1); frih_human FTH1 (UniProt P02794); ptps_human PTS (UniProt Q03393); pram_human PRAM1 (UniProt Q96QH2); FBP1 (UniProt P09467); phs_human PCBD1 (UniProt P61457); lcp2_human LCP2 (UniProt Q13094); cdkl3_human CDKL3 (UniProt Q8IVW4); scel_human SCEL (UniProt O95171); tom1_human TOM1 (UniProt O60784); ccdb1_human CCNDBP1 (UniProt O95273); nf2l2_human NFE2L2 (UniProt Q16236); jkip2_human JAKMIP2 (UniProt Q96AA8); zn446_human ZNF446 (UniProt Q9NWS9); zn496_human ZNF496 (UniProt Q96IT1); zsc32_human ZSCAN32 (UniProt Q9NX65); pgbd1_human PGBD1 (UniProt Q96JS3); kr101_human KRTAP10-1 (UniProt P60331); cc136_human CCDC136 (UniProt Q96JN2); mtus2_human MTUS2 (UniProt Q5JR59); zc4h2_human ZC4H2 (UniProt Q9NQZ6).

The next assay concerns the target T1, nqo2_human NQO2 (UniProt P16083).
T1 sequence: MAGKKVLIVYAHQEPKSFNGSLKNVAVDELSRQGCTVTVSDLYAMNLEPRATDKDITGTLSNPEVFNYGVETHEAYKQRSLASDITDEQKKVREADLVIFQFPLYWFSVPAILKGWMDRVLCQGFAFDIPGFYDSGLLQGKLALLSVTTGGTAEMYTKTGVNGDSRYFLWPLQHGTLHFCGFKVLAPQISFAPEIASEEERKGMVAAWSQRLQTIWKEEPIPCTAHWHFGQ

The next assay addresses T2, mycd_human MYOCD (UniProt Q8IZQ8).
T2 sequence: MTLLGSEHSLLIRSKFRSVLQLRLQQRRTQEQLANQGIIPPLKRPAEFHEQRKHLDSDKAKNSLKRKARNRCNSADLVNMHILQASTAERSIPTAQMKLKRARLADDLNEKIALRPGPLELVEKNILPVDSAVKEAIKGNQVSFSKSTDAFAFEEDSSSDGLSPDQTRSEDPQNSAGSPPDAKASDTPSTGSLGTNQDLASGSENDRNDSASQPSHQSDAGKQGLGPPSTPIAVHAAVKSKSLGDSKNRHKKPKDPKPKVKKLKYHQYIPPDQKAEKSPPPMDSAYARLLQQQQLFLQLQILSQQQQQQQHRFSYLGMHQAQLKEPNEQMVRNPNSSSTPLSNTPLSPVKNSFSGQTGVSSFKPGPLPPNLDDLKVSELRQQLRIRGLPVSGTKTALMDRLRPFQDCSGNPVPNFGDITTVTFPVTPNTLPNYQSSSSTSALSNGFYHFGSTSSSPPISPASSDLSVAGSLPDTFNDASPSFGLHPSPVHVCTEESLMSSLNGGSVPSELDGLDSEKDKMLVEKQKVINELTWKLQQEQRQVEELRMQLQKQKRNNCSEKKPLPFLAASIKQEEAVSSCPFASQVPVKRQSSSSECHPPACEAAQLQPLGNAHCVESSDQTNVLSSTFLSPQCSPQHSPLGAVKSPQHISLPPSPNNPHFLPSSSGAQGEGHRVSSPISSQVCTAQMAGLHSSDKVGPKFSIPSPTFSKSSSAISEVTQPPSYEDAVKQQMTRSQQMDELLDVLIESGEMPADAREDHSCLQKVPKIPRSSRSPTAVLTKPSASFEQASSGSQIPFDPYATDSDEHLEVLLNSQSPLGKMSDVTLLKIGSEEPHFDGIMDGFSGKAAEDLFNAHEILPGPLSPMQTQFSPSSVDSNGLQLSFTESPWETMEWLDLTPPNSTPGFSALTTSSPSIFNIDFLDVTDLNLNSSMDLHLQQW

The target in a further assay is T3, fosl2_human FOSL2 (UniProt P15408).
T3 sequence: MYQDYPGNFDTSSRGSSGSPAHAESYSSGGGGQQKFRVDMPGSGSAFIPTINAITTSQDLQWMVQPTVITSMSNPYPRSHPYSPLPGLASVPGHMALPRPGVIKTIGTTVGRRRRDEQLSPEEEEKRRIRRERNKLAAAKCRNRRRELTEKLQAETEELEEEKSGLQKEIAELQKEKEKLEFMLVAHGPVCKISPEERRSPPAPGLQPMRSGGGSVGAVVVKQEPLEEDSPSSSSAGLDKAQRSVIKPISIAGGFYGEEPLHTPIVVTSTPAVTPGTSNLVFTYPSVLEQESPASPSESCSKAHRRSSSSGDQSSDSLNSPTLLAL

In another assay the target is T4, odam_human ODAM (UniProt A1E959).
T4 sequence: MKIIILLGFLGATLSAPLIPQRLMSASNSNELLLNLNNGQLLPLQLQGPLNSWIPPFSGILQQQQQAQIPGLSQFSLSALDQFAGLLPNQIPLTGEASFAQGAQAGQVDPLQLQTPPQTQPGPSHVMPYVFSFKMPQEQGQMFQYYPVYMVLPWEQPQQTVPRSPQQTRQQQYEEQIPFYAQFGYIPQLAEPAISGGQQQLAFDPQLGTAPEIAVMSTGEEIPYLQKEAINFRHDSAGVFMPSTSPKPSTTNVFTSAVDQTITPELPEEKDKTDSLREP

Another assay has as its target T5, rhxf2_human RHOXF2 (UniProt Q9BQY4).
T5 sequence: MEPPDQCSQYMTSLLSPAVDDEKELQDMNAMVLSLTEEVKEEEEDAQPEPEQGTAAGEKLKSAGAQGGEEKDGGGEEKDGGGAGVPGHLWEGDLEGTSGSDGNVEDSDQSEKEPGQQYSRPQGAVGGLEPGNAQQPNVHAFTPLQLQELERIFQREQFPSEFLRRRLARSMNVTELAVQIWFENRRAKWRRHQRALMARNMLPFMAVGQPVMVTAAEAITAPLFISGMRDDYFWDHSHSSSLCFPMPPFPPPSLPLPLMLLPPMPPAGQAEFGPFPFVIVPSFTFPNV

The target in assay [1] is cep70_human CEP70 (UniProt Q8NHQ1).
Assay [2] shares this target. This is another data set of the same source.
Assay [3] has as its target tri41_human TRIM41 (UniProt Q8WV44).
Assay [4] addresses cep70_human CEP70 (UniProt Q8NHQ1). This is another data set of the same source.
Assay [5] addresses tri41_human TRIM41 (UniProt Q8WV44). The source holds these as a separate data set.

Sequence of Zinc finger and SCAN domain-containing protein 22 (Homo sapiens), P10073 A321V (P10073 whole entry A321V, the tested form may be a part): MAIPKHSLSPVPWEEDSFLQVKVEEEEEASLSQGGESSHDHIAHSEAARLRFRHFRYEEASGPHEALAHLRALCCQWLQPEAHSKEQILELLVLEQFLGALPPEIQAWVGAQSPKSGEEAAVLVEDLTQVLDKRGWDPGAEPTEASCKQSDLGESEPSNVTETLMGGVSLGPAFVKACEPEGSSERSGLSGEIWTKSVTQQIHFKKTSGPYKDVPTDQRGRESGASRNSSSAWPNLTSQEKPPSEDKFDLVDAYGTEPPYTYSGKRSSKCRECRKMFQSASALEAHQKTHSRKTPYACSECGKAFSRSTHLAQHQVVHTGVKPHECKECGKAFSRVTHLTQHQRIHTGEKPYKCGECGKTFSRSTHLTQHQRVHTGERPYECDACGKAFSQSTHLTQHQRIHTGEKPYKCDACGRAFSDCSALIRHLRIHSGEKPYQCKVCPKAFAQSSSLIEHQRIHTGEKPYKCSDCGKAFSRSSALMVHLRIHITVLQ
Sequence of Troponin T, slow skeletal muscle (Homo sapiens), P13805 R39S (P13805 whole entry R39S): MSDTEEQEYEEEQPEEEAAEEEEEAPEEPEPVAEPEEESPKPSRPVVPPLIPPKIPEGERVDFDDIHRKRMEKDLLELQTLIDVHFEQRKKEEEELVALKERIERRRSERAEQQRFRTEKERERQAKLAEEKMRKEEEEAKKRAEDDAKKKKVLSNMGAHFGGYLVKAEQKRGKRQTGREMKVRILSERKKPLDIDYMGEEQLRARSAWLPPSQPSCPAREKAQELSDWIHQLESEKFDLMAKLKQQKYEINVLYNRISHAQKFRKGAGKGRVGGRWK
Sequence of Importin subunit alpha-6 (Homo sapiens), O15131 F48L (O15131 whole entry F48L): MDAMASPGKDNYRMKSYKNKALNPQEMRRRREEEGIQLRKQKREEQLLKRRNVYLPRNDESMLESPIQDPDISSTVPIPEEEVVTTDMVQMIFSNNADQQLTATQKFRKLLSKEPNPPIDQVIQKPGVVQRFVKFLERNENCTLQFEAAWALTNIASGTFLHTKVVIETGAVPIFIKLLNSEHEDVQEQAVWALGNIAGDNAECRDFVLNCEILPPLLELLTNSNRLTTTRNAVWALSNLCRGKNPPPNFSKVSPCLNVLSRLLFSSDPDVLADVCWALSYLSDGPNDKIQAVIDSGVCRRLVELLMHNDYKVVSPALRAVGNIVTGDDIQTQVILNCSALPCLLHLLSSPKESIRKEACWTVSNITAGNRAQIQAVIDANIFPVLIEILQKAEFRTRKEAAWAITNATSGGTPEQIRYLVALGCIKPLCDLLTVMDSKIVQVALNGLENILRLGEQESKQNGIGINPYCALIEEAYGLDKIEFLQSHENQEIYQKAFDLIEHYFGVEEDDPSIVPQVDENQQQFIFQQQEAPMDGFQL
Sequence of cep70_human CEP70 (Q8NHQ1 whole entry): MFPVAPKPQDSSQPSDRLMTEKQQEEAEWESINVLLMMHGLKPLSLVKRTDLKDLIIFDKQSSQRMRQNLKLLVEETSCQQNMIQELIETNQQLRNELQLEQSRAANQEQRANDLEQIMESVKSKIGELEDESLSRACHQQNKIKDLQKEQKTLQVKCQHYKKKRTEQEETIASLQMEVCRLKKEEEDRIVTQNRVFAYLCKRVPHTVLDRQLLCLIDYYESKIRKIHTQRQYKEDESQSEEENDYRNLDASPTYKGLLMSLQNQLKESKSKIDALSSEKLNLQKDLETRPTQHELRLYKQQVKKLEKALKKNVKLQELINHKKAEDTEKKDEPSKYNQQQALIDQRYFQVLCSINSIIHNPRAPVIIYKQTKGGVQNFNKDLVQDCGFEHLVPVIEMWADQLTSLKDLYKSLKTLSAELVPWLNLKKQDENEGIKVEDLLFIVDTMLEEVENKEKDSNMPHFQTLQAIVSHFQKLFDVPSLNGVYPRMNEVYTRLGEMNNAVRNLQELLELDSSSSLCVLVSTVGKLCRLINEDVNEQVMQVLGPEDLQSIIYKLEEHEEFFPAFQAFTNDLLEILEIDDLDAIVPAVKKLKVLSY
Sequence of Polypyrimidine tract-binding protein 1 (Homo sapiens), P26599 A173T (P26599 whole entry A173T): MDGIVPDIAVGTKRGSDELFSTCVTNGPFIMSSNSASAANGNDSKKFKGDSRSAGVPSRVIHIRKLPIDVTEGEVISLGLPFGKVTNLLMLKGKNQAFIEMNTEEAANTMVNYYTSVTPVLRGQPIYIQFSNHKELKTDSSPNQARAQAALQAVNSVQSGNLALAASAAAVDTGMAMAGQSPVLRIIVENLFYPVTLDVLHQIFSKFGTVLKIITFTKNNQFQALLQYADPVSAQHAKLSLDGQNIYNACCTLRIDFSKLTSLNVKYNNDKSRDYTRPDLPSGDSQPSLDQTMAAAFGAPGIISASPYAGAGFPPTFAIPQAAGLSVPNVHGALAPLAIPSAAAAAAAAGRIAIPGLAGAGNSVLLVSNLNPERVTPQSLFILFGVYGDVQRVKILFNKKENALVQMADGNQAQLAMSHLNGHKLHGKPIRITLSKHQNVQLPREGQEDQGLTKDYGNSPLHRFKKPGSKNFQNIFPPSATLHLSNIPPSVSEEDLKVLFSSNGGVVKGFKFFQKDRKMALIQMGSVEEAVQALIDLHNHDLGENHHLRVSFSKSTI
Sequence of zn496_human ZNF496 (Q96IT1 whole entry): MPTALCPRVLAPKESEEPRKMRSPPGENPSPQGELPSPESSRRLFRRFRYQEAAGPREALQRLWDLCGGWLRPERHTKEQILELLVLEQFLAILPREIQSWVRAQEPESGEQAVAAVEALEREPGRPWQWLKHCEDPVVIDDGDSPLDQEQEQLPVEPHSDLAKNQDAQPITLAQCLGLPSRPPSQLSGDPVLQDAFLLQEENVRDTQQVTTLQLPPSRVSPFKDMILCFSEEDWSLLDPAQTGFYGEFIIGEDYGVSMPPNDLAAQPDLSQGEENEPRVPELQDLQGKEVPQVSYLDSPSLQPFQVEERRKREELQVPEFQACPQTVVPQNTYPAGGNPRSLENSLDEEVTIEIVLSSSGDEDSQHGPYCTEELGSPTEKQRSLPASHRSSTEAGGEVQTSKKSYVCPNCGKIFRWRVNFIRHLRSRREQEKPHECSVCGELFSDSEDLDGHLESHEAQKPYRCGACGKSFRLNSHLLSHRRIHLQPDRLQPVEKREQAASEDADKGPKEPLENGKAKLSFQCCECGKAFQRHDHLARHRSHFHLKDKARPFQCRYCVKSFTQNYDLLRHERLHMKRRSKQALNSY
Sequence of phs_human PCBD1 (P61457 whole entry): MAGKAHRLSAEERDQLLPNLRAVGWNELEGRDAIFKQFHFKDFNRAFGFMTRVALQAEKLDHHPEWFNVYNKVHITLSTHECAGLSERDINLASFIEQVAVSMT
Sequence of vtnc_human VTN (P04004 whole entry): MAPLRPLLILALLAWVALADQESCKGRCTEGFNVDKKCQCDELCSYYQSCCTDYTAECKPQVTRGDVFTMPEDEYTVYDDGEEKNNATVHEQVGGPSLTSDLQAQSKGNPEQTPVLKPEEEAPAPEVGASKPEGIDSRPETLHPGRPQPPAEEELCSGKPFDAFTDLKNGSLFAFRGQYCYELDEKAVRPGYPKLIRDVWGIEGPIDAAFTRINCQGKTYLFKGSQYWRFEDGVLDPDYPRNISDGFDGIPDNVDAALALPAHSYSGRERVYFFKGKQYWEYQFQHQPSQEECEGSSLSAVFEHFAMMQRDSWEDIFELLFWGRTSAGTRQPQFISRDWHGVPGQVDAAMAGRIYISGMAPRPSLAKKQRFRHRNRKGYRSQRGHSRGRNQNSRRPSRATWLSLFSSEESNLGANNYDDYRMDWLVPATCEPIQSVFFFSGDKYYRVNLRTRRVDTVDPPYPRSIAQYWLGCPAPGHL
Sequence of ptbp2_human PTBP2 (Q9UKA9 whole entry): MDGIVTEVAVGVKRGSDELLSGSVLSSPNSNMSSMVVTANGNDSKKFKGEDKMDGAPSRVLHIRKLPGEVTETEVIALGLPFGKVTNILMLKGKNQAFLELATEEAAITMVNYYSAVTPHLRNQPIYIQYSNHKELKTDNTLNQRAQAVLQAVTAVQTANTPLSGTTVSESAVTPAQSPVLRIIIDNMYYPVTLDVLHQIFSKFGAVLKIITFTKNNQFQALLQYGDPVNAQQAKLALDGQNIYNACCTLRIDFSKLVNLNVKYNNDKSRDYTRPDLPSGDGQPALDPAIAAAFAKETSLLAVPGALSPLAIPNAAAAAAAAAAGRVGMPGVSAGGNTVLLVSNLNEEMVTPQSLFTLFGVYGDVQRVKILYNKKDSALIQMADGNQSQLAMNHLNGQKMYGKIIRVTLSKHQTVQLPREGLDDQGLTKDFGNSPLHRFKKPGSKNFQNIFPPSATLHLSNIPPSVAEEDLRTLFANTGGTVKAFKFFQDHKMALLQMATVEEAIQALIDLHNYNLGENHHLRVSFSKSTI
Sequence of nf2l2_human NFE2L2 (Q16236 whole entry): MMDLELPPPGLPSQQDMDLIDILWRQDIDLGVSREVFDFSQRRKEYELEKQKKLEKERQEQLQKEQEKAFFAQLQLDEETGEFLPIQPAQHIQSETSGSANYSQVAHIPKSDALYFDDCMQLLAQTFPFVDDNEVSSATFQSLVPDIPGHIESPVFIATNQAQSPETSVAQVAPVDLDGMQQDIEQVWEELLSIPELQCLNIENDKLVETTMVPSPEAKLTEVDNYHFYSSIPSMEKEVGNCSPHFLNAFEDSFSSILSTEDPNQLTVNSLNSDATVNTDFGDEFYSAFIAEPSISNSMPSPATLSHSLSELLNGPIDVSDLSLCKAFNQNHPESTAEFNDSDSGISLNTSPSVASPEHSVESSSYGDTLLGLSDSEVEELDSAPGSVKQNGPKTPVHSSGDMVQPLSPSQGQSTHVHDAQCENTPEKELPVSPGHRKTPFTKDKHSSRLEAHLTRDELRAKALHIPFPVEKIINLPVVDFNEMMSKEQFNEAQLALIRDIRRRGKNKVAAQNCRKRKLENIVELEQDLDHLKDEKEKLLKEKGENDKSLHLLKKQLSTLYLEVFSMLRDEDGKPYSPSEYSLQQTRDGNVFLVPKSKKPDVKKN
Sequence of S100A1 (P23297 whole entry): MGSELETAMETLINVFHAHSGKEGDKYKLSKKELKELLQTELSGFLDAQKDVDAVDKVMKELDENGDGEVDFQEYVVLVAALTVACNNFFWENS

For the substance “Golgi reassembly-stacking protein 2 (Homo sapiens) (from UniProt Q9H8Y8) S432F”, the “effect of a mutation on the interaction” value in the assay with nqo2_human NQO2, with rgs3_human RGS3 and with stox1_human STOX1 was “with no effect” throughout.
Consider “Golgi-associated PDZ and coiled-coil motif-containing protein (Homo sapiens) (from UniProt Q9HD26) L123V”, for which the “effect of a mutation on the interaction” value with mycd_human MYOCD, with gt253_human CERCAM, with vtnc_human VTN and with fosl2_human FOSL2 was “with no effect” throughout.
On to “Importin subunit alpha-6 (Homo sapiens), O15131 F48L”, for which the “effect of a mutation on the interaction” value with nup50_human NUP50, with spopl_human SPOPL and with an32b_human ANP32B was “with no effect” each time.
For the substance “NEDD4-like E3 ubiquitin-protein ligase WWP2 (Homo sapiens), O00308 R315C”, the “effect of a mutation on the interaction” value with leg9b_human LGALS9B, with pdli7_human PDLIM7 and with anr44_human ANKRD44 was “with no effect” throughout.
Turning to “Polypyrimidine tract-binding protein 1 (Homo sapiens), P26599 A173T”, the “effect of a mutation on the interaction” value with snrpa_human SNRPA and with ptbp2_human PTBP2 was “with no effect” in each case.
Consider “Protein S100-A2 (Homo sapiens), P29034 S62N”, for which the “effect of a mutation on the interaction” value with S100A1 is listed as “with no effect”.
As for “RNA-binding protein FXR2 (Homo sapiens), P51116 K651E”, the “effect of a mutation on the interaction” value with tb22b_human TBC1D22B was “with no effect”; with ap2m1_human AP2M1, “with no effect”; in the assay with frih_human FTH1, “with no effect”; with ptps_human PTS, “with no effect”; in the assay with pram_human PRAM1 it was “with no effect”; in the assay with FBP1 it was “disrupting interaction strength”. Also, the “effect of a mutation on the interaction” value in the assay with phs_human PCBD1, in the assay with lcp2_human LCP2, with cdkl3_human CDKL3 and in the assay with scel_human SCEL was “with no effect” each time.
With “Toll-interacting protein (Homo sapiens) (from UniProt Q9H0E2) A222S”, the “effect of a mutation on the interaction” value with odam_human ODAM and in the assay with rhxf2_human RHOXF2 was “with no effect” throughout.
Consider “Toll-interacting protein (Homo sapiens) (from UniProt Q9H0E2) I264V”, for which, in the assay with tom1_human TOM1, the “effect of a mutation on the interaction” value is recorded as “with no effect”.
Consider “Troponin T, slow skeletal muscle (Homo sapiens), P13805 R39S”, for which the “effect of a mutation on the interaction” value with ccdb1_human CCNDBP1, with nf2l2_human NFE2L2 and in the assay with jkip2_human JAKMIP2 was “with no effect” in each case.
As to “Zinc finger and SCAN domain-containing protein 22 (Homo sapiens), P10073 A321V”, the “effect of a mutation on the interaction” value with zn446_human ZNF446, with zn496_human ZNF496, with zsc32_human ZSCAN32 and with pgbd1_human PGBD1 was “with no effect” each time.
Consider “Zinc finger protein 227 (Homo sapiens), Q86WZ6 P249S”, for which the “effect of a mutation on the interaction” value in the assay with cep70_human CEP70 [1] was “with no effect”.
With “Zinc finger protein 264 (Homo sapiens), O43296 G166D”, in the assay with kr101_human KRTAP10-1, the “effect of a mutation on the interaction” value is “with no effect”.
Regarding “Zinc finger protein 329 (Homo sapiens), Q86UD4 N182D”, the “effect of a mutation on the interaction” value with cep70_human CEP70 [2] and with tri41_human TRIM41 [3] was “with no effect” in each case.
As for “Zinc finger protein 490 (Homo sapiens), Q9ULM2 E419K”, the “effect of a mutation on the interaction” value with cc136_human CCDC136, with cep70_human CEP70 [4], with tri41_human TRIM41 [5], with mtus2_human MTUS2 and with zc4h2_human ZC4H2 was “with no effect” in each case.
